Test results published in patent publication US20230144192A1 (Sanofi, published 2023).

Target: FcRn (UniProt P55899 24-297; P61769 21-119, limits assumed)
Test: method not described; PBPK model input at pH 6.0, source given as 'Unpublished data'

- Kd: 1400 nM
B1: Ab1 (antibody, human IgG4 S228P, kappa)
heavy: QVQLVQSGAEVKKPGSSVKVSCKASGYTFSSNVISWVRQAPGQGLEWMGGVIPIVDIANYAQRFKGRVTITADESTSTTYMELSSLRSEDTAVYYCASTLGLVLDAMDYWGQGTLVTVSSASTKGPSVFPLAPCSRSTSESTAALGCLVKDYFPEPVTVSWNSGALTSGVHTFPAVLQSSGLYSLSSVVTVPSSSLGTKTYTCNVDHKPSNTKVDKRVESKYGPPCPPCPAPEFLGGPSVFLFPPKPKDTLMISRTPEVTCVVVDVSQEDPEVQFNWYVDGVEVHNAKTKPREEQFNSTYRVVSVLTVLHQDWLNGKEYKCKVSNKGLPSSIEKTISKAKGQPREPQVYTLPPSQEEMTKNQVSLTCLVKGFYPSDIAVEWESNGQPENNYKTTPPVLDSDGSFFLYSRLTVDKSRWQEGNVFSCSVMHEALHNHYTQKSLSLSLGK
light: ETVLTQSPGTLSLSPGERATLSCRASQSLGSSYLAWYQQKPGQAPRLLIYGASSRAPGIPDRFSGSGSGTDFTLTISRLEPEDFAVYYCQQYADSPITFGQGTRLEIKRTVAAPSVFIFPPSDEQLKSGTASVVCLLNNFYPREAKVQWKVDNALQSGNSQESVTEQDSKDSTYSLSSTLTLSKADYEKHKVYACEVTHQGLSSPVTKSFNRGEC
notes: Human IgG4 (S228P, Eu numbering) / kappa anti-TGF-beta antibody; also called GC2008; copies: 2 + 2
